{"source": "paper PMC7132299", "about": "(Proceedings of the National Academy of Sciences of the …, 2020)", "molecules": {"B1": {"name": "LRX8 (insect-cell protein, limits not stated for the experiment) (domain or fragment)", "chain": "ENGDLPDDIEYEVDLDLKFANNRLKRAYIALQAWKKAFYSDPFNTAANWVGPDVCSYKGVFCAPALDDPSVLVVAGIDLNHADIAGYLPPELGLLTDVALFHVNSNRFCGVIPKSLSKLTLMYEFDVSNNRFVGPFPTVALSWPSLKFLDIRYNDFEGKLPPEIFDKDLDAIFLNNNRFESTIPETIGKSTASVVTFAHNKFSGCIPKTIGQMKNLNEIVFIGNNLSGCLPNEIGSLNNVTVFDASSNGFVGSLPSTLSGLANVEQMDFSYNKFTGFVTDNICKLPKLSNFTFSYNFFNGEAQSCVPGSSQEKQFDDTSNCLQNRPNQKSAKECLPVVSRPVDCSKDKCAGG", "modifications": "N-glycosylated"}}, "key": {"[1]": {"biological_target": "LRX11 (insect-cell protein, limits not stated for the experiment) (Arabidopsis thaliana)", "experiment": "SEC-MALS"}, "wild-type pollen tubes": {"system": "wild-type pollen tubes", "experiment": "Pollen tube growth assay after peptide addition", "format": "cell-based, Arabidopsis thaliana", "details": "peptide at 50 and 100 nM"}, "[2]": {"biological_target": "LLG3 ectodomain (residues 24 to 137) (Arabidopsis thaliana) (UniProt Q9M0I0)", "sequence (Q9M0I0 24-137)": "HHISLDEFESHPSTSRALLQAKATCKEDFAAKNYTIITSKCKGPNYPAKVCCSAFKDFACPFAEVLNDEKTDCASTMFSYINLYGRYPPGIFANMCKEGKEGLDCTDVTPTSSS", "experiment": "ITC"}, "[3]": {"biological_target": "LRX8_(C157A.Y87A.A133F) (Arabidopsis thaliana)", "experiment": "ITC"}, "[4]": {"biological_target": "LRX8_(49–400) (Arabidopsis thaliana)", "experiment": "ITC"}, "[5]": {"biological_target": "biotinylated LRX8 (49 to 400) fused to a noncleavable Avi-tag (Arabidopsis thaliana)", "experiment": "grating-coupled interferometry"}, "[6]": {"biological_target": "LLG3 ectodomain (residues 24 to 137) (Arabidopsis thaliana) (UniProt Q9M0I0)", "experiment": "ITC", "remark": "listed apart in the source"}, "[7]": {"biological_target": "LLG2 ectodomain (residues 24 to 135) (Arabidopsis thaliana) (UniProt Q6NLF4)", "sequence (Q6NLF4 24-135)": "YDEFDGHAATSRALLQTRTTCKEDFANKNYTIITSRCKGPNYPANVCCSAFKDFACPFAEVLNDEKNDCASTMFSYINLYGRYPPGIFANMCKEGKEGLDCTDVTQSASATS", "experiment": "ITC"}, "[8]": {"biological_target": "LRX8_(49–400) (Arabidopsis thaliana)", "experiment": "ITC", "remark": "listed apart in the source"}, "[9]": {"biological_target": "LRX8 (insect-cell protein, limits not stated for the experiment) (Arabidopsis thaliana)", "experiment": "SEC-MALS"}, "SEC-MALS": {"biological_target": "the molecule itself", "experiment": "SEC-MALS"}, "[10]": {"biological_target": "LRX8_(49–400) (Arabidopsis thaliana)", "experiment": "ITC", "remark": "listed apart in the source"}}, "note": "Where two headings read alike, the source gives them in different places.", "data": [{"molecule": "LRX11 (insect-cell protein, limits not stated for the experiment) (domain or fragment)", "values": [{"measurement": "stoichiometry N", "setting": "[1]", "value": 2}]}, {"molecule": "PTYNSCRRKCKRDRGYAARRYKRYRYVNADIKRNHSGYPCRICSRLYGRN [RALF4scrambled]", "values": [{"measurement": "effect on pollen tube growth, in words", "setting": "wild-type pollen tubes", "value": "no effect"}]}, {"molecule": "RALF4_(folded) (RALF4 residues 58 to 110, isolated from insect cells) (peptide)", "values": [{"measurement": "Kd", "setting": "[2]", "value": 11000, "unit": "nM"}, {"measurement": "Kd", "setting": "[3]", "value": 2.5, "unit": "nM"}, {"measurement": "Kd", "setting": "[4]", "value": 3.5, "unit": "nM"}, {"measurement": "kon", "setting": "[5]", "value": 400000, "unit": "M⁻¹ s⁻¹"}, {"measurement": "Kd", "setting": "[6]", "value": 1500, "unit": "nM"}, {"measurement": "Kd", "setting": "[7]", "value": 500, "unit": "nM"}, {"measurement": "Kd", "setting": "[8]", "value": 100, "unit": "nM"}, {"measurement": "stoichiometry N", "setting": "[1]", "value": 1}, {"measurement": "stoichiometry N", "setting": "[9]", "value": 1}]}, {"molecule": "B1", "values": [{"measurement": "stoichiometry N", "setting": "SEC-MALS", "value": 2}]}, {"molecule": "RRYIGYDALKKNNVPCSRRGRSYYDAKKRRRNNPYRRGCSAITHAYRYAR", "note": "[RALF4_(C86A.C105A)]", "values": [{"measurement": "fold reduction of affinity (against RALF4 (folded))", "setting": "[10]", "value": 10, "unit": "fold"}]}, {"molecule": "RRYIGYDALKKNNVPASRRGRSYYDAKKRRRNNPYRRGASAITHAYRYAR", "note": "[RALF4_(C76A.C86A.C99A.C105A)]", "values": [{"measurement": "fold reduction of affinity (against RALF4 (folded))", "setting": "[10]", "value": 10, "unit": "fold"}]}, {"molecule": "RRYIGYDALKKNNVPCSRRGRSAADCKKRRRNNPYRRGCSAITHCYRYAR", "note": "[RALF4_(Y83A.Y84A)]", "values": [{"measurement": "Kd", "setting": "[10]", "value": 1400, "unit": "nM"}]}, {"molecule": "RRYIGYDALKKNNVPCSRRGRSYYDCKKRRRNNPYRRGCSAITHCYRYAR", "note": "[RALF4_(synthetic)]", "values": [{"measurement": "Kd", "setting": "[10]", "value": 60, "unit": "nM"}]}]}
